Results from article PMC3169180.

B1: mature form of full-length OmpA (OmpA325), P0A910 22-346 (natural protein)
chain: APKDNTWYTGAKLGWSQYHDTGFINNNGPTHENQLGAGAFGGYQVNPYVGFEMGYDWLGRMPYKGSVENGAYKAQGVQLTAKLGYPITDDLDIYTRLGGMVWRADTKSNVYGKNHDTGVSPVFAGGVEYAITPEIATRLEYQWTNNIGDAHTIGTRPDNGMLSLGVSYRFGQGEAAPVVAPAPAPAPEVQTKHFTLKSDVLFNFNKATLKPEGQAALDQLYSQLSNLDPKDGSVVVLGYTDRIGSDAYNQGLSERRAQSVVDYLISKGIPADKISARGMGESNPVTGNTCDNVKQRAALIDCLAPDRRVEIEVKGIKDVVTQPQA

Columns and labels:
[1] = target: N-terminal barrel domain of OmpA (OmpA171, residues 1–171) (E. coli K12 MG1655); test: circular dichroism kinetics
[2] = target: T1, mature form of full-length OmpA (OmpA325) (E. coli K12 MG1655), P0A910; test: AUC; conditions: remark: other sources report otherwise
T1 chain: B1 chain

| Molecule | critical nucleus size n* (nucleated growth polymerization model) [1] [molecules] | order of the self-association reaction (initial rates) [1] | percent monomer (3 μM OmpA325, 450 mM urea, 30 minutes) [2] [%] |
| --- | --- | --- | --- |
| N-terminal barrel domain of OmpA (OmpA171, residues 1–171) (domain or fragment) | 2.6 | 3.2 | – |
| B1 | – | – | 75 |
